This assay concerns the target MERS-CoV main protease (M^pro), wild type, authentic N-terminus (MERS-CoV). The assay can be described thus: AUC.

In paper PMC4682845 one finds percent dimer data, which are given here for 1 substance.

MERS-CoV main protease (M^pro), wild type, authentic N-terminus (enzyme), sequence (K9N638 3248-3553 limits assumed): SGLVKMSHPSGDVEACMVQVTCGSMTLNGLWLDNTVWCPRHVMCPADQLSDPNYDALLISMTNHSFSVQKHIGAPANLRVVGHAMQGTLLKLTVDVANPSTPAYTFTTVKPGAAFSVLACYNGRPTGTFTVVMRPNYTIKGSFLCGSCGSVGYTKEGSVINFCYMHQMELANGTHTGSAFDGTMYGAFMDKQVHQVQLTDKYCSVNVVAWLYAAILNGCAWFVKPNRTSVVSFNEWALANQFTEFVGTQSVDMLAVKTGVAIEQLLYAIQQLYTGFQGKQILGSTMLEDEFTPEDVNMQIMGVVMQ

The substance “MERS-CoV main protease (M^pro), wild type, authentic N-terminus (enzyme)” returned a percent dimer of 70%.
